Test results taken from the supplement of paper PMC10567573.

B1: PLK2 (parent)
chain: MELLRTITYQPAASTKMCEQALGK
B2: DLC1 (parent)
chain: KRSWEEHVTHWMGQPFNSDDRNTA

Variants of: B1
Assay: protein stability index of a GFP-peptide fusion (GPS, HEK-293T) (PSI 1-6); higher = more stable
Conditions: c terminus: a fixed tail appended
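Also: lentivirally expressed fusions sorted by FACS into six bins by GFP to DsRed ratio, PSI derived from sequencing read proportions per bin multiplied by bin number.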

Protein stability index, by site and new letter:
L22: T 2.43; D 1.87; M 1.57; I 2.42; W 2.86
A21: Y 2.16; Q 2.98; K 1.51; R 2.69; L 2.7; F 1.94; E 2.46; V 2.5; I 3.11
Y9: M 1.89; I 2.34; Q 2.01; A 2.52; S 3.53; V 2.11
C18: Y 1.01; K 1.61; R 2.85; H 2.34; E 1.96; V 2.26; S 2.81; N 1.95; D 1.94
L4: N 4.01; D 4.39; E 3.69; K 4.05; H 2.6; Y 1.98; R 3.26
K24: P 2.65; W 3.92; N 2.59; H 3.08; Y 3.96; V 2.86; M 3.29; R 1.98
T15: Q 2.87; S 2.41; I 2.39; M 2.87
Q20: G 2.7; T 3.59; R 2.71; E 1.78; I 2.18; N 1.69; V 1.6; Y 2.58; F 2.08; S 1.75
T6: K 2.19; W 1.99; A 1.93; V 2.55; R 2.04; C 1.92
E2: T 2.28; V 2.13; A 1.79; H 2.05; F 1.69; D 2.75
G23: T 1.46; M 2.28; D 1.93; K 2.94; L 3.53; W 3.02; I 1.97
R5: L 3.55; K 3.52; M 2.36; T 2.47; D 3.95; Q 3.26; N 3.79; P 3.83
P11: A 2.12; G 2.1; M 2.15; H 2.39; Y 2.69; N 1.82; V 3.59
L3: V 2.49; P 3.11; R 2.24; Q 2.08; K 1.37; D 2.46; M 3.04; I 2.63; A 2.82
M1: Y 2.54; N 4.1; C 1.51; R 3.04; H 3.67; Q 3.84; D 3.64
A13: K 2.61; Y 2.42; E 2.09; W 1.82; V 1.96; I 1.82; F 2.33; L 2.43
S14: M 2.33; N 3.48; E 2.3; F 2.49; K 2.24; P 1.5; Y 3.88
E19: P 3.73; K 2.63; N 2.28; H 2.09; D 2.27
K16: M 1.85; S 2.34; P 2.02; E 2.18; W 2.05; C 2.95; N 2.01; L 1.84
Q10: G 3.21; K 2.78; A 2.79; R 2.97; L 2.49; S 2.54; P 2.83; E 2.5
A12: V 2.4; R 2.34; T 2.81; M 1.47; F 2.97; S 1.56; K 2.03; G 2.32; I 2.35; L 2.57
I7: Y 2.6; R 3.09; V 1.97; M 2.85; L 2.03; T 1.97
M17: D 2.02; G 1.53; V 2.98; K 2.98; P 2.04; T 2.74; S 2.33
T8: S 2.21; W 2.55; Q 1.94; F 2.17; R 2.5; V 2.49; G 2.44; K 2.25; C 2.32; H 2.03; D 2.01

Variants of: B2
Assay: as above
Conditions: c terminus: a fixed tail appended

Protein stability index: each site, then its substitutions
G13: R 2.23; C 2.1; L 2.73; E 2.61; M 2.44; Y 2.08
R21: V 3.31; L 3.36; D 2.89; E 2.99; S 2.9; T 3.08; K 3.32; F 1.95; P 2.6
E5: F 3.16; T 2.4; N 3.5; A 2.55; D 3.94; K 2.58; L 2.47; I 1.92
T23: K 2.74; H 2.23; R 2.65; I 2.35; D 3.26; M 1.73
H10: A 2.17; F 1.92; C 2.92; Y 1.92; P 3.52; W 2.31; T 2.32
D19: L 2.12; T 2.4; N 2.69; Q 2.65; G 2.25; M 2.88; Y 1.43
T9: E 3.84; V 2.75; Q 3.6; M 3.48
E6: A 2.72; L 2.58; P 3.46; C 2.87; T 3.15; W 2.67
H7: C 3.33; E 3.1; P 4.2; M 2.84; W 2.82; D 3.68; F 2.84
M12: Q 2.78; L 2.94; A 2.44; V 2.73; S 2.57; T 3.34; G 2.63; I 2.53
P15: S 2.3; G 2.43; H 2.66
A24: P 2.92; W 2.6; L 2.89; F 2.37; R 2.86
V8: R 4.22; D 4.42; M 3.66; S 3.88; F 3.34; L 3.31; A 4.13
W4: T 4.76; I 4.41; P 4.45; H 4.44; L 3.45; Y 4.08
D20: T 2.75; Q 3.05; H 2.48; N 2.59; V 2.02; G 2.43; I 2.54
N22: K 3.02; P 2.73; G 2.81; R 2.53; E 2.56
Q14: H 2.36; Y 2.6; P 2.84; I 2.44; G 2.29; N 2.75
W11: N 2.26; Q 2.12; D 2.33; G 2.69; C 2.48; H 2.95; S 2.53; K 3.61; A 2.97; I 3.01
S18: M 2.92; L 2.03; E 2.97; F 2.27; W 2.01; I 2.61; K 3.12; P 3.11
S3: H 3.72; F 3.18; T 2.13; E 4.41; I 3.78; D 4.33; G 3.44
F16: L 3.55; A 2.54; P 2.68; G 3.14; Y 2.69; C 2.66; N 3.62; S 3.07; Q 2.41
K1: R 2.99; H 2.69; M 2.73; Y 2.81; F 3.16
R2: N 3.67; L 3.28; F 3.62; I 2.71; H 3.08
N17: P 2.73; T 3.4; K 2.1; E 2.52; A 2.64
